# Source: publication PMC10959955 (2024)
# Biological target: nucleosome reconstituted with human core histones and Widom 601 DNA (human, UniProt P04908 2-130; P06899 1-126; P68431 1-136; P62805 2-103)
# Test: MST
row,Binder,Kd
1,"His6-tagged RING domain heterodimer, wild type (GST-RING^A with His6-Twin-Strep-Rad6A-RING^B) (complex, RED-Tris-NTA label on the His6 tag) chain 1: PDNVPKCDEILMEEIKDYKARLTCPCCNMRKKDAVLTKCFHVFCFECVKTRYDTRQRKCPKCNAAFGANDFHRIYIG chain 2: MSTPARRRLMRDFKRLQEDPPAGVSGAPSENNIMVWNAVIFGPEGTPFEDGTFKLTIEFTEEYPNKPPTVRFVSKMFHPNVYADGSICLDILQNRWSPTYDVSSILTSIQSLLDEPNPNSPANSQAAQLYQENKREYEKRVSAIVEQSWRDCVEVYADADEILQEEIKEYKARLTCPCCNTRKKDAVLTKCFHVFCFECVRGRYEARQRKCPKCNAAFGAHDFHRIYIS",7.8 nM
2,"His6-tagged RING domain heterodimer, GA + TT mutant (GST-RING^A T948G^A-T952A^A with His6-Twin-Strep-Rad6A-RING^B G974T^B-A978T^B) (complex, RED-Tris-NTA label on the His6 tag) chain 1: PDNVPKCDEILMEEIKDYKARLTCPCCNMRKKDAVLTKCFHVFCFECVKGRYDARQRKCPKCNAAFGANDFHRIYIG chain 2: MSTPARRRLMRDFKRLQEDPPAGVSGAPSENNIMVWNAVIFGPEGTPFEDGTFKLTIEFTEEYPNKPPTVRFVSKMFHPNVYADGSICLDILQNRWSPTYDVSSILTSIQSLLDEPNPNSPANSQAAQLYQENKREYEKRVSAIVEQSWRDCVEVYADADEILQEEIKEYKARLTCPCCNTRKKDAVLTKCFHVFCFECVRTRYETRQRKCPKCNAAFGAHDFHRIYIS",34 nM

# The remaining binders from weak to strong by Kd, led by results:
row,Kd,Binder
1,11.8 nM,"His6-tagged RING domain heterodimer, GA mutant (GST-RING^A T948G^A-T952A^A with His6-Twin-Strep-Rad6A-RING^B) (complex, RED-Tris-NTA label on the His6 tag) chain 1: PDNVPKCDEILMEEIKDYKARLTCPCCNMRKKDAVLTKCFHVFCFECVKGRYDARQRKCPKCNAAFGANDFHRIYIG chain 2: MSTPARRRLMRDFKRLQEDPPAGVSGAPSENNIMVWNAVIFGPEGTPFEDGTFKLTIEFTEEYPNKPPTVRFVSKMFHPNVYADGSICLDILQNRWSPTYDVSSILTSIQSLLDEPNPNSPANSQAAQLYQENKREYEKRVSAIVEQSWRDCVEVYADADEILQEEIKEYKARLTCPCCNTRKKDAVLTKCFHVFCFECVRGRYEARQRKCPKCNAAFGAHDFHRIYIS"
2,7.3 nM,"His6-tagged RING domain heterodimer, TT mutant (GST-RING^A with His6-Twin-Strep-Rad6A-RING^B G974T^B-A978T^B) (complex, RED-Tris-NTA label on the His6 tag) chain 1: PDNVPKCDEILMEEIKDYKARLTCPCCNMRKKDAVLTKCFHVFCFECVKTRYDTRQRKCPKCNAAFGANDFHRIYIG chain 2: MSTPARRRLMRDFKRLQEDPPAGVSGAPSENNIMVWNAVIFGPEGTPFEDGTFKLTIEFTEEYPNKPPTVRFVSKMFHPNVYADGSICLDILQNRWSPTYDVSSILTSIQSLLDEPNPNSPANSQAAQLYQENKREYEKRVSAIVEQSWRDCVEVYADADEILQEEIKEYKARLTCPCCNTRKKDAVLTKCFHVFCFECVRTRYETRQRKCPKCNAAFGAHDFHRIYIS"
